Target: 4-1BB (Acro) (Homo sapiens (assumed)) (UniProt Q07011)
Test: SPR

Kd: 8 nM
Substance: Urelumab, variable domains in human IgG1 expression vectors (antibody)

Reference: doi:10.1101/2025.11.26.690765
